Assay results: the supplement of paper PMC5998384

How the values were obtained:
HeLa Kyoto [1] = assay: solubility in G1/S (NP-40 vs SDS abundance) (log2 ratio); higher = more soluble; conditions: cell cycle stage: G1/S
HeLa Kyoto [2] = assay: melting temperature (median over replicates), in situ; higher = more thermally stable
HeLa Kyoto [3] = assay: solubility change mitosis vs G1/S (difference of NP-40 vs SDS log2 ratios) (log2 ratio difference); higher = more soluble in mitosis
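Throughout, for melting temperature (median over replicates), in situ: HeLa Kyoto cells synchronized by double thymidine or nocodazole block, proteins quantified by TMT10plex mass spectrometry, three independent biological replicates.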
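Throughout, for solubility change mitosis vs G1/S (difference of NP-40 vs SDS log2 ratios): synchronized HeLa Kyoto cells (double thymidine block for G1/S, nocodazole release for mitosis), protein amounts in NP-40 versus SDS lysates quantified by mass spectrometry, three biological replicates.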
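Throughout, for solubility in G1/S (NP-40 vs SDS abundance): HeLa Kyoto cells arrested at G1/S by double thymidine block, proteins quantified by TMT10plex mass spectrometry in mild NP-40 versus SDS extracts, three biological replicates.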

Row | Sequence | solubility in G1/S (log2) (HeLa Kyoto [1]) | melting temperature (HeLa Kyoto [2]; cell cycle stage: G1/S) | melting temperature (HeLa Kyoto [2]; cell cycle stage: mitosis) | solubility change mitosis (log2) (HeLa Kyoto [3])
1 | MAASRSTRVTRSTVGLNGLDESFCGRTLRNRSIAHPEEISSNSQVRSRSPKKRPEPVPIQKGNNNGRTTDLKQQSTRESWVSPRKRGLSSSEKDNIERQAIENCERRQTEPVSPVLKRIKRCLRSEAPNSSEEDSPIKSDKESVEQRSTVVDNDADFQGTKRACRCLILDDCEKREIKKVNVSEEGPLNSAVVEEITGYLAVNGVDDSDSAVINCDDCQPDGNTKQNSIGSYVLQEKSVAENGDTDTQTSMFLDSRKEDSYIDHKVPCTDSQVQVKLEDHKIVTACLPVEHVNQLTTEPATGPFSETQSSLRDSEEEVDVVGDSSASKEQCKENTNNELDTSLESMPASGEPEPSPVLDCVSAQMMSLSEPQEHRYTLRTSPRRAAPTRGSPTKNSSPYRENGQFEENNLSPNETNATVSDNVSQSPTNPGEISQNEKGICCDSQNNGSEGVSKPPSEARLNIGHLPSAKESASQHITEEEDDDPDVYYFESDHVALKHNKDYQRLLQTIAVLEAQRSQAVQDLESLGRHQREALKNPIGFVEKLQKKADIGLPYPQRVVQLPEIVWDQYTHSLGNFEREFKNRKRHTRRVKLVFDKVGLPARPKSPLDPKKDGESLSYSMLPLSDGPEGSSSRPQMIRGRLCDDTKPETFNQLWTVEEQKKLEQLLIKYPPEEVESRRWQKIADELGNRTAKQVASRVQKYFIKLTKAGIPVPGRTPNLYIYSKKSSTSRRQHPLNKHLFKPSTFMTSHEPPVYMDEDDDRSCFHSHMNTAVEDASDDESIPIMYRNLPEYKELLQFKKLKKQKLQQMQAESGFVQHVGFKCDNCGIEPIQGVRWHCQDCPPEMSLDFCDSCSDCLHETDIHKEDHQLEPIYRSETFLDRDYCVSQGTSYNYLDPNYFPANR [ZZZ3] | -0.198 | 48.9 °C | 49.1 °C | 0.273
2 | MADKPDMGEIASFDKAKLKKTETQEKNTLPTKETIEQEKRSEIS [TMSB10] | -1.37 | 53.8 °C |  | 0.336
3 | MADSSPALSLREGGPRAPRPSAPSPPPRSRSGSESEEAELSLSLARTKTRSYGSTASVRAPLGAGVIERHVEHRVRAGDTLQGIALKYGVTMEQIKRANKLFTNDCIFLKKTLNIPVISEKPLLFNGLNSIDSPENETADNSFSQEEEPVVAGEDLPPPSPQESDVQPVQPEEVSARDFLQRLDLQIKLSTQAAKKLKEESRDEESPYATSLYHS [LYSMD2] | 0.0316 | 52 °C | 51.8 °C | -0.0367
4 | MADYWKSQPKKFCDYCKCWIADNRPSVEFHERGKNHKENVAKRISEIKQKSLDKAKEEEKASKEFAAMEAAALKAYQEDLKRLGLESEILEPSITPVTSTIPPTSTSNQQKEKKEKKKRKKDPSKGRWVEGITSEGYHYYYDLISGASQWEKPEGFQGDLKKTAVKTVWVEGLSEDGFTYYYNTETGESRWEKPDDFIPHTSDLPSSKVNENSLGTLDESKSSDSHSDSDGEQEAEEGGVSTETEKPKIKFKEKNKNSDGGSDPETQKEKSIQKQNSLGSNEEKSKTLKKSNPYGEWQEIKQEVESHEEVDLELPSTENEYVSTSEADGGGEPKVVFKEKTVTSLGVMADGVAPVFKKRRTENGKSRNLRQRGDDQ [WBP4] | -0.703 |  | 54.7 °C | 0.763
5 | MAEAGTGEPSPSVEGEHGTEYDTLPSDTVSLSDSDSDLSLPGGAEVEALSPMGLPGEEDSGPDEPPSPPSGLLPATVQPFHLRGMSSTFSQRSRDIFDCLEGAARRAPSSVAHTSMSDNGGFKRPLAPSGRSPVEGLGRAHRSPASPRVPPVPDYVAHPERWTKYSLEDVTEVSEQSNQATALAFLGSQSLAAPTDCVSSFNQDPSSCGEGRVIFTKPVRGVEARHERKRVLGKVGEPGRGGLGNPATDRGEGPVELAHLAGPGSPEAEEWGSHHGGLQEVEALSGSVHSGSVPGLPPVETVGFHGSRKRSRDHFRNKSSSPEDPGAEV [TSSC4] | 0.167 | 51 °C | 50.5 °C | 0.0166
6 | MAENREPRGAVEAELDPVEYTLRKRLPSRLPRRPNDIYVNMKTDFKAQLARCQKLLDGGARGQNACSEIYIHGLGLAINRAINIALQLQAGSFGSLQVAANTSTVELVDELEPETDTREPLTRIRNNSAIHIRVFRVTPK [POP7] | 0.19 |  | 54.9 °C | -0.0753
7 | MAERGRKRPCGPGEHGQRIEWRKWKQQKKEEKKKWKDLKLMKKLERQRAQEEQAKRLEEEEAAAEKEDRGRPYTLSVALPGSILDNAQSPELRTYLAGQIARACAIFCVDEIVVFDEEGQDAKTVEGEFTGVGKKGQACVQLARILQYLECPQYLRKAFFPKHQDLQFAGLLNPLDSPHHMRQDEESEFREGIVVDRPTRPGHGSFVNCGMKKEVKIDKNLEPGLRVTVRLNQQQHPDCKTYHGKVVSSQDPRTKAGLYWGYTVRLASCLSAVFAEAPFQDGYDLTIGTSERGSDVASAQLPNFRHALVVFGGLQGLEAGADADPNLEVAEPSVLFDLYVNTCPGQGSRTIRTEEAILISLAALQPGLIQAGARHT [C9ORF114] | -1.68 |  | 51.8 °C | 0.696
8 | MAEYLASIFGTEKDKVNCSFYFKIGACRHGDRCSRLHNKPTFSQTIALLNIYRNPQNSSQSADGLRCAVSDVEMQEHYDEFFEEVFTEMEEKYGEVEEMNVCDNLGDHLVGNVYVKFRREEDAEKAVIDLNNRWFNGQPIHAELSPVTDFREACCRQYEMGECTRGGFCNFMHLKPISRELRRELYGRRRKKHRSRSRSRERRSRSRDRGRGGGGGGGGGGGGRERDRRRSRDRERSGRF [U2AF1] | -0.457 | 46.8 °C | 48.2 °C | 0.342
9 | MAFWCQRDSYAREFTTTVVSCCPAELQTEGSNGKKEVLSGFQVVLEDTVLFPEGGGQPDDRGTINDISVLRVTRRGEQADHFTQTPLDPGSQVLVRVDWERRFDHMQQHSGQHLITAVADHLFKLKTTSWELGRFRSAIELDTPSMTAEQVAAIEQSVNEKIRDRLPVNVRELSLDDPEVEQVSGRGLPDDHAGPIRVVNIEGVDSNMCCGTHVSNLSDLQVIKILGTEKGKKNRTNLIFLSGNRVLKWMERSHGTEKALTALLKCGAEDHVEAVKKLQNSTKILQKNNLNLLRDLAVHIAHSLRNSPDWGGVVILHRKEGDSEFMNIIANEIGSEETLLFLTVGDEKGGGLFLLAGPPASVETLGPRVAEVLEGKGAGKKGRFQGKATKMSRRMEAQALLQDYISTQSAKE [AARSD1] | 0.18 | 49.8 °C | 49.9 °C | -0.0164
10 | MAGQHLPVPRLEGVSREQFMQHLYPQRKPLVLEGIDLGPCTSKWTVDYLSQVGGKKEVKIHVAAVAQMDFISKNFVYRTLPFDQLVQRAAEEKHKEFFVSEDEKYYLRSLGEDPRKDVADIRKQFPLLKGDIKFPEFFKEEQFFSSVFRISSPGLQLWTHYDVMDNLLIQVTGKKRVVLFSPRDAQYLYLKGTKSEVLNIDNPDLAKYPLFSKARRYECSLEAGDVLFIPALWFHNVISEEFGVGVNIFWKHLPSECYDKTDTYGNKDPTAASRAAQILDRALKTLAELPEEYRDFYARRMVLHIQDKAYSKNSE [TYW5] | -0.0115 | 53.8 °C | 53.8 °C | -0.114
11 | MAICQFFLQGRCRFGDRCWNEHPGARGAGGGRQQPQQQPSGNNRRGWNTTSQRYSNVIQPSSFSKSTPWGGSRDQEKPYFSSFDSGASTNRKEGFGLSENPFASLSPDEQKDEKKLLEGIVKDMEVWESSGQWMFSVYSPVKKKPNISGFTDISPEELRLEYHNFLTSNNLQSYLNSVQRLINQWRNRVNELKSLNISTKVALLSDVKDGVNQAAPAFGFGSSQAATFMSPGFPVNNSSSDNAQNFSFKTNSGFAAASSGSPAGFGSSPAFGAAASTSSGISTSAPAFGFGKPEVTSAASFSFKSPAASSFGSPGFSGLPASLATGPVRAPVAPAFGGGSSVAGFGSPGSHSHTAFSKPSSDTFGNSSISTSLSASSSIIATDNVLFTPRDKLTVEELEQFQSKKFTLGKIPLKPPPLELLNV [NUPL2] | -0.304 |  | 51.7 °C | 0.326
